Assay [1] deals with T1, human GnRH receptor (human, UniProt P30968 1-328).
T1 construct: whole, on cells; Endogenous receptor; also called LHRH receptor; human pituitary GnRH receptor
T1 sequence (looked up): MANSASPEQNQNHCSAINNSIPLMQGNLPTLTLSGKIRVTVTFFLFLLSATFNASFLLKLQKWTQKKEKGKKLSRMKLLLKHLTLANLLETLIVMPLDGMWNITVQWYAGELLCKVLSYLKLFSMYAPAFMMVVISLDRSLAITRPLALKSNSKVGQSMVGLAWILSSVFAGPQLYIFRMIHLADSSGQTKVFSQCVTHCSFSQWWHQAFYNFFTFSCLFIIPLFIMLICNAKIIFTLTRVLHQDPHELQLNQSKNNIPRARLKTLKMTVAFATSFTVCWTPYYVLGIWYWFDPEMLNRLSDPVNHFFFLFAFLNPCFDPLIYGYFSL
Briefly: cell-based or functional assay.

In assay [2] the target is T1, human GnRH receptor. As to the kind of experiment: radioligand displacement curves on BLM melanoma cell membranes. On the technique in general: Displacement assays read how much labelled ligand stays bound in the presence of the test substance.
Assay [3] deals with T2, rat pituitary GnRH receptor (rat, UniProt P30969 1-327).
T2 construct: whole, on cells; also called Rat pituitaries
T2 sequence (looked up): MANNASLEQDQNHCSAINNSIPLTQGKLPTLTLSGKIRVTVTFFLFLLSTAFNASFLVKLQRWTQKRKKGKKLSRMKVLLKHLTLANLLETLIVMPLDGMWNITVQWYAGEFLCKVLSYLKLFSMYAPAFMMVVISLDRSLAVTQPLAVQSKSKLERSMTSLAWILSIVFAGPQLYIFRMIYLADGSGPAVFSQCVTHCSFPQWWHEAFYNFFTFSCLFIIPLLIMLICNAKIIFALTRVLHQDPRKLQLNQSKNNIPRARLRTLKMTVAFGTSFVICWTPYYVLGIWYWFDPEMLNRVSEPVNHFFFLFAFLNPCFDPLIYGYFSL
As to the kind of experiment: radioligand displacement curves on rat pituitary membranes (control).

Assay [4] concerns the target T1, human GnRH receptor. As to the kind of experiment: radioligand displacement curves on ME15392 melanoma cell membranes.

*1 amine or outer side, *2 acyl side, *3 side chain or, on linkers, in order; H or OH if unused. [ ]: non-standard residue; d: D form. dSer(tBu) = CC(C)(C)OC[C@@H](N[*:1])C(=O)[*:2]; pGlu = O=C1CC[C@@H](C(=O)O)N1; azaGly = NNC(=O)O

In the case of “Antide (LHRH antagonist, Sigma Chemical Co., No. A8802) (peptide)”, in the assay with human GnRH receptor [1], the inhibition of proliferation of MV3 melanoma cells at 10^-4 M worked out at 15%, the inhibition of proliferation of MV3 melanoma cells at 10^-5 M was found to be 35% and the stimulation of growth of MV3 melanoma cells at 10^-6 M turned out to be 40%.
In the assay with human GnRH receptor [1], Cetrorelix (GnRH antagonist) (peptide) registered a decrease of proliferation of U-87MG cells at 10^-6 M of 28% and an inhibition of proliferation of U-87MG cells at 10^-5 M of 30%.
Consider “Triptorelin (LHRH agonist, Sigma Chemical Co., No. L9761) (peptide)”, for which, in the assay with human GnRH receptor [1], the inhibition of proliferation of MV3 melanoma cells from day 4 on (10^-4, 10^-5, 10^-6 M) stood at 15%.

B1: GnRH agonist LHRH-A (ZOLADEX, [D-Ser(tBu)^6Aza-Gly-LHRH]) (peptide)
peptide: [pGlu]HWSY[dSer(tBu)]LRP[azaGly]-NH2
modifications: also: ^125I-labelled form used as tracer in binding assay
notes: also called Goserelin
The Kd is the equilibrium constant for the complex coming apart. Read a low Kd as tighter binding. In the case of B1, the results for the Kd (with human GnRH receptor [2]; in assay [3]; in the assay with human GnRH receptor [4]) were 0.7 to 1.1 nM, 1.5 to 2 nM and 0.1 to 0.6 nM, respectively.

The values are drawn from patent US20100190692A1 (published 2010).
